Positions count from the first letter of the chain named.
Tests used:
human serum albumin [1] = biological target: T1, human serum albumin (human, UniProt P02768 25-609); assay: ITC, HSA titrated into ELP, PBS pH 7.4, 37 °C; Example 2 ITC series (FIG. 3A), naked ELP control
T1 construct: also called HSA; human albumin

mouse serum albumin [2] = biological target: T2, mouse serum albumin (mouse, UniProt P07724 25-608); assay: ITC (Nano ITC), albumin titrated into construct, PBS, 37 °C; PTX-example ITC series (Table 10), CP without ABD and without drug; µM fit
T2 construct: also called MSA; mouse albumin

mouse serum albumin [3] = biological target: T2, mouse serum albumin; assay: ITC, MSA titrated into ELP, PBS pH 7.4, 37 °C; Example 2 ITC series (FIG. 4A), naked ELP control; fitted N with an error larger than the value
human serum albumin [4] = biological target: T1, human serum albumin; assay: ITC, HSA titrated into ELP, PBS pH 7.4, 37 °C; Example 2 ITC series (FIG. 3A), naked ELP control; weak µM best-fit KD that the text calls no specific affinity
mouse serum albumin [5] = biological target: T2, mouse serum albumin; assay: ITC, MSA titrated into ELP, PBS pH 7.4, 37 °C; Example 2 ITC series (FIG. 4A), naked ELP control; weak µM best-fit KD that the text calls no specific affinity
mouse serum albumin [6] = biological target: T2, mouse serum albumin; assay: ITC, MSA titrated into CP-DOX micelles, PBS pH 7.4, 37 °C
mouse serum albumin [7] = biological target: T2, mouse serum albumin; assay: ITC, MSA titrated into ABDH-ELP, PBS pH 7.4, 37 °C
Protocol: (§1) The experiments were performed in phosphate buffered saline (pH 7.4) at 37° C.

mouse serum albumin [8] = biological target: T2, mouse serum albumin; assay: ITC, MSA titrated into ABDH-CP-DOX micelles, PBS pH 7.4, 37 °C
Protocol: as §1

mouse serum albumin [9] = biological target: T2, mouse serum albumin; assay: ITC, MSA titrated into ABDN-CP-DOX micelles, PBS pH 7.4, 37 °C
Protocol: as §1

mouse serum albumin [10] = biological target: T2, mouse serum albumin; assay: ITC (Nano ITC), albumin titrated into micelles, PBS, 37 °C
Protocol: (§2) For PTX conjugates, ITC was conducted using a Nano ITC system (TA Instruments, Utah, USA). […] For background correction, PBS (in the cell) was titrated with albumin (in the syringe) at the same concentrations and conditions. Background was subtracted from the final curves and the binding and thermodynamic parameters binding constant (KD), number of binding sites (n), and enthalpy (ΔH)—were computed by non-linear fitting to an independent-binding site model using TA Instruments NanoAnalyze software.

human serum albumin [11] = biological target: T1, human serum albumin; assay: as above
Protocol: as §2

human serum albumin [12] = biological target: T1, human serum albumin; assay: ITC, HSA titrated into ABDN-ELP, PBS pH 7.4, 37 °C
Protocol: as §1

mouse serum albumin [13] = biological target: T2, mouse serum albumin; assay: ITC, MSA titrated into ABDN-ELP, PBS pH 7.4, 37 °C
Protocol: as §1

mouse serum albumin [14] = biological target: T2, mouse serum albumin; assay: ITC (Nano ITC), albumin titrated into construct, PBS, 37 °C
human serum albumin [15] = biological target: T1, human serum albumin; assay: as above

T2 sequence (P07724 25-608 limits assumed): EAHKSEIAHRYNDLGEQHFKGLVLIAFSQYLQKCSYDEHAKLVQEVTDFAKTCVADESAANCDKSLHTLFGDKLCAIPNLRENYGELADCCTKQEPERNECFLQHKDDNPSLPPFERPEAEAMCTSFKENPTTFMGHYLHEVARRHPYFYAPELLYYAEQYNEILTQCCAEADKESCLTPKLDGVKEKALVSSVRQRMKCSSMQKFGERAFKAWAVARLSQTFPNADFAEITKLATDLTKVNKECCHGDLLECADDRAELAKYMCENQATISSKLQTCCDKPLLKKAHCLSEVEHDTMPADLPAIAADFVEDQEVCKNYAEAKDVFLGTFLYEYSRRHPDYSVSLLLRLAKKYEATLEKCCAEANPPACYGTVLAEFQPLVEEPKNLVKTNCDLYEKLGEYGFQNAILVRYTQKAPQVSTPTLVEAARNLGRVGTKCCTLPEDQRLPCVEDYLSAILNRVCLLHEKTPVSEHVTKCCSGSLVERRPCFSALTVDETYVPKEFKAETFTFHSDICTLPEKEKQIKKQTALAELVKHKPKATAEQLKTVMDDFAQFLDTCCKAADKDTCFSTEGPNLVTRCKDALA

ELP (naked elastin-like polypeptide with no ABD at its N-terminus)
binding stoichiometry N (human serum albumin [1]): 0.75 | Kd (mouse serum albumin [2]): 3500 nM | binding stoichiometry N (mouse serum albumin [3]): 0.152 | Kd (human serum albumin [4]): 69000 nM | Kd (mouse serum albumin [5]): 71400 nM

CP-DOX micelles (doxorubicin-conjugated chimeric polypeptide without ABD)
Kd (mouse serum albumin [6]): 91900 nM | binding stoichiometry N (mouse serum albumin [6]): 0.0386

B1: ABDH-ELP (albumin binding domain H, engineered variant of ABDN, fused to the N-terminus of ELP) (designed binder)
chain: LAEAKVLANRELDKYGVSDFYKRLINKAKTVEGVEALKLHILAALPVPGAGVPGAGVPGAGVPGAGVPGAGVPGAGVPGAGVPGAGVPGAGVPGAGVPGAGVPGAGVPGAGVPGAGVPGAGVPGAGVPGAGVPGAGVPGAGVPGAGVPGAGVPGAGVPGAGVPGAGVPGAGVPGAGVPGAGVPGAGVPGAGVPGAGVPGAGVPGAGVPGAGVPGAGVPGAGVPGAGVPGAGVPGAGVPGAGVPGAGVPGAGVPGAGVPGAGVPGAGVPGAGVPGAGVPGAGVPGAGVPGAGVPGAGVPGAGVPGAGVPGAGVPGAGVPGAGVPGAGVPGAGVPGAGVPGAGVPGAGVPGAGVPGAGVPGAGVPGAGVPGAGVPGAGVPGAGVPGAGVPGAGVPGAGVPGAGVPGAGVPGAGVPGAGVPGAGVPGAGVPGAGVPGAGVPGAGVPGAGVPGAGVPGAGVPGAGVPGAGVPGAGVPGAGVPGAGVPGAGVPGAGVPGAGVPGAGVPGAGVPGAGVPGAGVPGAGVPGAGVPGAGVPGAGVPGAGVPGAGVPGAGVPGAGVPGAGVPGAGVPGAGVPGAGVPGAGVPGAGVPGAGVPGAGVPGAGVPGAGVPGAGVPGAGVPGAGVPGAGVPGAGVPGAGVPGAGVPGAGVPGAGVPGAGVPGAGVPGAGVPGAGVPGAGVPGAGVPGAGVPGAGVPGAGVPGAGVPGAGVPGAGVPGAGVPGAGVPGAGVPGAGVPGAGVPGAGVPGAGVPGAGVPGAGVPGAGCGGCGGCGGCGGCGGCGGCGGCGG
notes: Unconjugated monomer, 68.6 kDa by SDS-PAGE; also called ABDH-CP
Kd (mouse serum albumin [7]): 5.19 nM

B2: ABDH-CP-DOX micelles (doxorubicin-conjugated ABDH-chimeric polypeptide) (designed binder)
chain: B1 chain
notes: Self-assembled micelle; aggregates at 37 °C without albumin
Kd (mouse serum albumin [8]): 66.1 nM

B3: ABDN-CP-DOX micelles (doxorubicin-conjugated ABDN-chimeric polypeptide) (designed binder)
chain: B1 chain with F20Y, R23N, K27N, E35K, K38I, L39D, H40E
notes: Self-assembled micelle; also called ABD-CP-DOX
Kd (mouse serum albumin [9]): 318 nM

B4: ABD-CP-PTX micelles (paclitaxel-conjugated ABD-chimeric polypeptide) (designed binder)
chain: B1 chain with F20Y, R23N, K27N, E35K, K38I, L39D, H40E
notes: Self-assembled micelle; also called ABDN-CP-PTX
Kd (mouse serum albumin [10]): 4.37 nM | Kd (human serum albumin [11]): 5.58 nM

B5: ABDN-ELP (albumin binding domain N fused to the N-terminus of ELP) (designed binder)
chain: LAEAKVLANRELDKYGVSDYYKNLINNAKTVEGVKALIDEILAALPVPGAGVPGAGVPGAGVPGAGVPGAGVPGAGVPGAGVPGAGVPGAGVPGAGVPGAGVPGAGVPGAGVPGAGVPGAGVPGAGVPGAGVPGAGVPGAGVPGAGVPGAGVPGAGVPGAGVPGAGVPGAGVPGAGVPGAGVPGAGVPGAGVPGAGVPGAGVPGAGVPGAGVPGAGVPGAGVPGAGVPGAGVPGAGVPGAGVPGAGVPGAGVPGAGVPGAGVPGAGVPGAGVPGAGVPGAGVPGAGVPGAGVPGAGVPGAGVPGAGVPGAGVPGAGVPGAGVPGAGVPGAGVPGAGVPGAGVPGAGVPGAGVPGAGVPGAGVPGAGVPGAGVPGAGVPGAGVPGAGVPGAGVPGAGVPGAGVPGAGVPGAGVPGAGVPGAGVPGAGVPGAGVPGAGVPGAGVPGAGVPGAGVPGAGVPGAGVPGAGVPGAGVPGAGVPGAGVPGAGVPGAGVPGAGVPGAGVPGAGVPGAGVPGAGVPGAGVPGAGVPGAGVPGAGVPGAGVPGAGVPGAGVPGAGVPGAGVPGAGVPGAGVPGAGVPGAGVPGAGVPGAGVPGAGVPGAGVPGAGVPGAGVPGAGVPGAGVPGAGVPGAGVPGAGVPGAGVPGAGVPGAGVPGAGVPGAGVPGAGVPGAGVPGAGVPGAGVPGAGVPGAGVPGAGVPGAGVPGAGVPGAGVPGAGVPGAGVPGAGVPGAGVPGAGVPGAGVPGAGVPGAGVPGAGVPGAGVPGAGVPGAGVPGAGCGGCGGCGGCGGCGGCGGCGGCGG
notes: Unconjugated monomer, 68.5 kDa by SDS-PAGE; also called ABDN-CP; ABD-CP
Kd (human serum albumin [12]): 48.4 nM | Kd (mouse serum albumin [13]): 66.4 nM | Kd (mouse serum albumin [14]): 16.3 nM | Kd (human serum albumin [15]): 6.47 nM

Reference: patent US20210316007A1 (DUKE UNIVERSITY, published 2021)
